{"source": "the DeepSol protein solubility set"}
{"assay": "soluble on expression in E. coli; label from the status in PepcDB or PDB records"}
{"sequence": "MSITSTDICQAADALKGFVGFNRKTGRYIVRFSEDSFGMDVADDSITPTSEFVWSSVRDDVMRLGREQLQILLEQNINERLNIGEPLLVYLRRQDLPEITAQRQLR", "soluble on expression in E. coli": "not soluble"}
{"sequence": "MSIYEYFVKLHRYLLWQTKKIRALERRLHALEARLREMEAQPRTSIERIEYKFDQLKVETLEGTLNIGIAPPGAGGTIEDFAVEPVKTVIPKPEPVLMRPIQEKVAAYLNGEASETLKRLEQQYGRRLDDTYRQFILQDIARQTDERIRFYLQEKANHGYVPSGDRDEAVENEIFQKVKADIEQSLDAFLKHLPSKEGST", "soluble on expression in E. coli": "not soluble"}
{"sequence": "MSIYSKILVVADINNDEQPALARAVQLAQKSVSRSRITFFLSIYDFSYDMTSMLSVDERDAMRRGVIHQREQWMRKIAQPYLNDSFDFDVCVVWHNRPYEAIIAEVYAGGHDLLIKGTRKHDVLESVIFTPTDWHLLRKCPTPVLLIKNSDWPEQANILASVHVGSENPTHIDLNDAMVERLKEMSNRLDAEPYLVNAYPVTPANITIELPEFDPTTYTDAVRGHHLTAMKALRQKHGIDEEQT", "soluble on expression in E. coli": "not soluble"}
{"sequence": "MSKAGASLATCYGPVSADVMAKAENIRLLILDVDGVLSDGLIYMGNNGEELKAFNVRDGYGIRCALTSDIEVAIITGRKAKLVEDRCATLGITHLYQGQSNKLIAFSDLLEKLAIAPENVAYVGDDLIDWPVMEKVGLSVAVADAHPLLIPRADYVTRIAGGRGAVREVCDLLLLAQGKLDEAKGQSI", "soluble on expression in E. coli": "soluble"}
{"sequence": "MSKEPGEDVDLFDMEQFQSSFKRILQRALKNVTVSFRVYEKDSVWIRVAWGTQYSQPNQYKPTFVVYYPQTPYAFISSCHLKNTVPLLHQALKVASKHHQIVHLDLRSRHLDSLKAIVFREYNQTCENYSSTTSLQEASLSMCLDSKITHENTEEKVRVHRVTQETFGTYPQPQLEFAQYKLETKFKSNIGGGLLADRKEPFRCLVKFSSPHLLEALKSLAPAGIADAPLSPLLTCIPSKKMNYFKIRDK", "soluble on expression in E. coli": "not soluble"}
{"sequence": "MSKFNLGIAKAGKTVNNEGAIAYSMSDKEKLVTQVLTSFFNENKFYGDNSQDILNTVRNVIKNEAAFVANLCIFARKEMHLRTISHVLVSELAKSTEGKEYVRRTLNEIIERPDDMTEVLAYYINTYGKPIPNSIKKGLADSFGKFDEYQLAKYNRKNAVKLKDILCLVHPKAKDEIQNDLWKRLLEDRLETPVTWETELSLKGNTKEVWERLIDENRLGYMAMMRNLRNIIKSGASNMDKVYEYLTDEERVLKNKQLPFRYYSAYKVLRNEGIGTSKIYDALEIAIKISTKNIDRLPGKTLIAADVSGSMNFPVSAKSDLTCAEVAVLMLSIANYICEESITMTFDDNLYACNLSTQNGIIANANSIKVNGGGTDITLPLRYLLDKRIFVDRIILLSDNEINAVYTYDTGRDKPKTCQALVERYKKWINPNVWVHAIDMQGYGTQQFKGQNVNIIAGWSERVFDFISSVEQGIDTLIGKISGYYFK", "soluble on expression in E. coli": "soluble"}
{"sequence": "MSKIAKTAIISPKAEINKGVEIGEFCVIGDGVKLDEGVKLHNNVTLQGHTFVGKNTEIFPFAVLGTQPQDLKYKGEYSELIIGEDNLIREFCMINPGTEGGIKKTLIGDKNLLMAYVHVAHDCVIGSHCILANGVTLAGHIEIGDYVNIGGLTAIHQFVRIAKGCMIAGKSALGKDVPPYCTVEGNRAFIRGLNRHRMRQLLESKDIDFIYALYKRLFRPIPSLRESAKLELEEHANNPFVKEICSFILESSRGVAYKSSEYSSEEKQEE", "soluble on expression in E. coli": "soluble"}
{"sequence": "MSKLASPQSVRALLERHGLFADKRFGQNFLVSEAHLRRIVEAARPFTGPVFEVGPGLGALTRALLEAGAEVTAIEKDLRLRPVLEETLSGLPVRLVFQDALLYPWEEVPQGSLLVANLPYHIATPLVTRLLKTGRFARLVFLVQKEVAERMTARPKTPAYGVLTLRVAHHAVAERLFDLPPGAFFPPPKVWSSLVRLTPTGALDDPGLFRLVEAAFGKRRKTLLNALAAAGYPKARVEEALRALGLPPRVRAEELDLEAFRRLREGLEGAV", "soluble on expression in E. coli": "soluble"}
{"sequence": "MSKLFPGEVFANTADFDTGIRQLLPRYDEMLEVICRCLPLTSRRILDLGCGTGELSLKILQRCPDAQVIALDYSPRMLKFAQNKIVASGYKERWTGLQADFGDWAINPETLNIGNEFDACVSSLAIHHLYDEMKLQLFQRIAASLTPNGCFWNADPILPESPTLAEIYQAAREEWVSEQGSNFTEVRAKVGDSSPQGYSNPDQLATLDTHLQMLTKSGFTTVAVPWKYYGLAVFGGWVKLEHHHHHH", "soluble on expression in E. coli": "soluble"}
{"sequence": "MSKLKIAVSDSCPDCFTTQRECIYINESRNIDVAAIVLSLNDVTCGKLDEIDATGYGIPVFIATENQERVPAEYLPRISGVFENCESRREFYGRQLETAASHYETQLRPPFFRALVDYVNQGNSAFDCPGHQGGEFFRRHPAGNQFVEYFGEALFRADLCNADVAMGDLLIHEGAPCIAQQHAAKVFNADKTYFVLNGTSSSNKVVLNALLTPGDLVLFDRNNHKSNHHGALLQAGATPVYLETARNPYGFIGGIDAHCFEESYLRELIAEVAPQRAKEARPFRLAVIQLGTYDGTIYNARQVVDKIGHLCDYILFDSAWVGYEQFIPMMADCSPLLLDLNENDPGILVTQSVHKQQAGFSQTSQIHKKDSHIKGQQRYVPHKRMNNAFMMHASTSPFYPLFAALNINAKMHEGVSGRNMWMDCVVNGINARKLILDNCQHIRPFVPELVDGKPWQSYETAQIAVDLRFFQFVPGEHWHSFEGYAENQYFVDPCKLLLTTPGIDARNGEYEAFGVPATILANFLRENGVVPEKCDLNSILFLLTPAEDMAKLQQLVALLVRFEKLLESDAPLAEVLPSIYKQHEERYAGYTLRQLCQEMHDLYARHNVKQLQKEMFRKEHFPRVSMNPQEANYAYLRGEVELVRLPDAEGRIAAEGALPYPPGVLCVVPGEIWGGAVLRYFSALEEGINLLPGFAPELQGVYIEEHDGRKQVWCYVIKPRDAQSTLLKGEKL", "soluble on expression in E. coli": "soluble"}
{"sequence": "MSKPKYNRVVLKLSGEALAGEQGFGINPAVIKSVAEQVKEIAELDVEVAVVVGGGNIWRGKIGSEMGMDRAGADYMGMLATVMNSLALQDSLENIGIQTRVQTSIEMRQVAEPYIRRKAVRHLEKKRVVIFAAGTGNPYFSTDTTAALRAAEIEADVILMAKNNVDGVYNADPSIDPTATKYETLTYLDVLKEGLGVMDSTASSLCMDNDIPLIVFSVMEKGNIKRAVLGENIGTVVRGKLEHHHHHH", "soluble on expression in E. coli": "not soluble"}
{"sequence": "MSKSSNSDSQKSLPSPGHPSTGRPDLDLITDPLEEQRLEPQRDSHRSDTRGHPSTGRKSHNSTSAQSSVYNSRTDPENAAMDSDEELRKMMEGFVDDEESDPTYEPP", "soluble on expression in E. coli": "soluble"}
{"sequence": "MSKTLKIAIDAGHGPQTPGKRCPDDSMREFHFNSVVARYVRDGLAQYEGVQTMFTHADDGSRDVPLQERTDRANAWGADVFVSIHANASGNGWSDARGIETYVYTTRPAQAVKLAEAVQRNLIKETGLKDRGVKAENFHVLRETKMTAILCECGFMTNREEAELLKSDAYRRKCAKAIVAGIAEVYDLTLKQQAHASEPTYSGKFKDVPDGHYAKGATERLAEKGIMNGIGNGLFGFGKPITREDAAVIVDRAITYLEQKISQK", "soluble on expression in E. coli": "not soluble"}
{"sequence": "MSKTTLVERCYKYIMSNEKNWSPYTVINRKSWVKNYIEPFFKDTKLIDINPVLIQTFINTTFNNCTFSSSKIRYRFISSVLKEAYRLREINENPCDFVKLPLEHHHHHH", "soluble on expression in E. coli": "soluble"}
{"sequence": "MSKVKIELFTSPMCPHCPAAKRVVEEVANEMPDAVEVEYINVMENPQKAMEYGIMAVPTIVINGDVEFIGAPTKEALVEAIKKRL", "soluble on expression in E. coli": "soluble"}
{"sequence": "MSKYKTILQSNKDELHSLYEIANQDSWKPIYHIHPPFGLMNDPNGVSYYNDEYHVFYQWYPFGPIHGMKHWGHVRSKDLINWERMPVAIIPTESYESHGAYSGSAIVKDGLLHLLYTGNIKKPDDSRDAKQCMASMDSQYTMTKYSNNPVIDIIPDGYTKHVRDPKVWKHNDMYYMLLGAQRENKTGTLLLYKSQDLYNWHFQGEITTNLKEFGFMWECPDYFQLSGKDVLLFSPQGIEKDGENFHNVYNVVYAIGHFDIKNLYFHVDSYYEADKGFDFYAPQTLEDSTSRRLLFAWAGSSEITYPSDDYMWAHCLTLPRELTLEDNILKQKPVSELTKLRTTKKDISGDITAGLNVLSTLDDEDSYELIVTLKTEDAKRFGLSLFHNEEECFPITFNREQGTISIDRGNFYHQFGGEYGFERCKKIDIQDTIELQIFVDKSIVEIFLYDGSTVFTSRVFPRKDMKHHIAIFSDAKLNFTITQYKLKRGIVLEHHHHHH", "soluble on expression in E. coli": "soluble"}
{"sequence": "MSLAAELFATRPDTHARERPEAVALIDRDRPVTHAALRAGVLDLAGGLAALGVCRGERVALWLPNCAHWVTMFLACARLGALTLAVNTRFRAQELGDILGRGQADWLVYWPGFKGIDFAGILAAVPPAARARLRGAIVVDGSGAQATPGPAGLAAHALAALHGPAPLPAPNAGVLCFTTSGTTSLPKFVLHDQDTLLRHGDAIARSYGYDDDSRILASAPFCGAFGFATLVGALARGVPVICEPAFDAARSVAAVRRHRVTHTYANNEALVQMFRLGERADFATARLFGFASFAPALGDLLPLARAQGVPLTGLYGSSELIALVAAQPREPADGDVSVRYEPGGALIHPEARVRARDPQDGRILADGESGEIEILAPSLMRGYLDNPQASAGALTDDGYFRTGDLGYTLGTRQFVFQTRMGDSLRLSGFLVNPAEIEQAVEALPGIRACQVVGATRDGKTVPYAFVLLDAGASPDPPGWMAACRQGMAGFKVPAGFQVLEAFPVVESANSAKIQKHKLREQAEALLAAAEGHHHHHH", "soluble on expression in E. coli": "not soluble"}
{"sequence": "MSLAAELLIATGEYAPWTGEQLPDGGYVNRVVREAFAREGVQVRFAYMPWARALEALRNGNAQASSFWYDDPVKAKEFLYSAPISEHRELLFHRKDVTVPPWRKLRDLRGLRFGATHGYTYTAEFRQLMKQGALNVEEANDDKINLLKMLAGRIELFPLDEFTGWQLLTSDAFPRGAHDLVTTEARPFSIQYGHLLMPRSARNEQLMARFNAGLARLRADGTLERFRLDLYRGSGMGEGHHHHHH", "soluble on expression in E. coli": "soluble"}
{"sequence": "MSLAAFQIANKTVGKDAPVFIIAEAGINHDGKLDQAFALIDAAAEAGADAVKFQMFQADRMYQKDPGLYKTAAGKDVSIFSLVQSMEMPAEWILPLLDYCREKQVIFLSTVCDEGSADLLQSTSPSAFKIASYEINHLPLLKYVARLNRPMIFSTAGAEISDVHEAWRTIRAEGNNQIAIMHCVAKYPAPPEYSNLSVIPMLAAAFPEAVIGFSDHSEHPTEAPCAAVRLGAKLIEKHFTIDKNLPGADHSFALNPDELKEMVDGIRKTEAELKQGITKPVSEKLLGSSYKTTTAIEGEIRNFAYRGIFTTAPIQKGEAFSEDNIAVLRPGQKPQGLHPRFFELLTSGVRAVRDIPADTGIVWDDILLKDSPFHEEGGSHHHHHH", "soluble on expression in E. coli": "soluble"}
{"sequence": "MSLAAHWEIAVKNSSRSAVDPFIVMDVMEAARRAEEAGRRIIHMEVGQPGTGAPRGAVEALAKSLETDALGYTVALGLPALRQRIARLYGEWYGVDLDPGRVVITPGSSGGFLLAFTALFDSGDRVGIGAPGYPSYRQILRALGLVPVDLPTAPENRLQPVPADFAGLDLAGLMVASPANPTGTMLDHAAMGALIEAAQAQGASFISDEIYHGIEYEAKAVTALELTDECYVINSFSKYFSMTGWRVGWMVVPEDQVRVVERIAQNMFICAPHASQVAALAALDCDAELQANLDVYKANRKLMLERLPKAGFTRIAPPDGAFYVYADVSDLTDDSRAFAAEILEKAGVAVTPGLDFDPERGAGTLRFSYARATADIEEGLDRLEAFMQARGEGHHHHHH", "soluble on expression in E. coli": "soluble"}
{"sequence": "MSLAAIDKTTVATVNGEKITLGEVDSHLKGVFAQMKSQYGDKYMDDPQVAQQILQQRQSVVQGLVTDKVLGIEADKLGIKPSEEEIKKKVDEQFENIKKGMGDNFDKALEAEGYTEDTFKDVIKNQVINQAVQDYIIKDVKVTDEDAQKYYDENKQQFVAKDSGVLTKHLLFENEEEAQKAYDEIQSGKTTFNDLFTKYENNKSENKKPIAENLGVVPAENSGLVQEFVDGLKPLKEGEISKPIKTQFGYHIIQAGATYEKGAQLPFDDVKSQIIQILKQQKDSEKFKADMDQWKKDLNVKVYDDKLQEGLKISEGHHHHHH", "soluble on expression in E. coli": "soluble"}
